Data taken from patent US10729768B2, “Combination of anti-CD20 antibody and PI3 kinase selective inhibitor” (TG Therapeutics, Inc., priority 2012, dated 2020).

How the values were obtained:
[1] = test system: B-cells; test: cytotoxicity to B-cells; type: cell-based; conditions: concentrations up to 10 μM
[2] = test system: CD20+ cells; test: LPS-induced proliferation in HWB, flow cytometry, CD20; type: cell-based; conditions: Homo sapiens, 72 hrs
[3] = test system: U266B1, DB, Raji, and Daudi cells; test: cell cycle assay, flow cytometry, cell-lines tested; type: cell-based; conditions: 72 hrs
Method: A cell cycle assay reagent (Millipore) was used to determine the effect of S-isomer of a compound of formula A, UBX, and combinations thereof on the cell cycle in cancerous cells. In these experiments, cells were plated in a 6-well plate at a concentration of 0.5×10^6 cells/ml, treated with either S-isomer of a compound of formula A (10 μM to 0.1 μM), UBX (100 μg/ml to 0.1 μg/ml), or UBX with S-isomer of a compound of formula A at 1000 nM, and incubated for 72 hrs at 37° C. and 5% CO2. The cells were transferred to microfuge tubes to receive 50 μl of cell cycle reagent and incubated for 30 minutes at RT away from light. Cells were then diluted with 300-400 μl PBS, and a minimum of 10,000 events were acquired on a Guava® easyCyte™ flow cytometer. The data was analyzed with Express Pro software and the percentage of the cell population in different cell cycle stages with respect to control was presented in histograms.

[4] = test system: LY1 Cells; test: in situ caspase-3 kit, caspase 3 activity and combination index (Example 5); type: cell-based; conditions: for Caspase 3 Activity: LY1 cells, 24 hrs
Method: (§1) In order to determine the effect of S-isomer of a compound of formula A, UBX, and combinations thereof on apoptosis in cancer cells, an in situ caspase-3 kit (Millipore) was used. CELLS were plated in a 6 well plate at a concentration of 0.5×10^6 cells/ml, treated with either S-isomer of a compound of formula A (200-5000 nM), UBX (10,000 ng/ml to 10 ng/ml), or UBX with S-isomer of a compound of formula A (as indicated), and incubated for 24 hrs at 37° C. and 5% CO2. The cells were then transferred to microfuge tubes to receive 10 μl of freshly prepared FLICA™ reagent and incubated for 1 hour at 37° C. and 5% CO2 away from light. After extensive washes with wash buffer, test samples were adjusted to equalize the number of cells in PBS. 100 μl of each cell suspension was transferred to black 96-well plates in duplicates, and the fluorescence was read at an excitation wavelength of 490 nm and an emission wavelength of 520 nm in a plate reader. The fluorescence intensity for a DMSO control was subtracted from that of test compounds. Data was expressed as caspase-3 activity a combination index (C.I.) calculated.

[5] = test system: Raji Cells; test: as above; type: cell-based; conditions: 24 hrs; for Caspase 3 Activity: Raji cells
Method: as §1

[6] = test system: CD19+ B-cell; test: LPS-induced proliferation in HWB, flow cytometry, CD19; type: cell-based, human; conditions: 72 hrs
Method: Flow cytometry was used to study the effect of S-isomer of a compound of formula A, Ubx, and combinations thereof on LPS-induced proliferation of CD19 and CD20 cells in HWB. In these experiments, 250 μl of diluted (1:3.5 with RPMI-HG Media) HWB sample was treated with either S-isomer of a compound of formula A (10 μM to 0.1 μM), UBX (100 μg/ml to 0.1 μg/ml) or UBX with S-isomer of a compound of formula A at 1000 nM for 15 minutes followed by 20 μg/ml LPS induction and incubated for 72 hrs at 37° C. and 5% CO2. 20 μl of treated sample was taken in a 1.5 ml centrifuge tube and labeled with CD20 FITC and CD19 PE antibody and incubated in the dark for 1 hour at RT. 1 ml of RBC lysing solution was added and tubes were centrifuged at 3000 rpm for 10 minutes. Supernatant was aspirated, and 250 μl of PBS was added to the pellet. Tubes were vortexed, and 5000 events were acquired on a Guava® easyCyte™ flow cytometer and analyzed with Incyte Software.
Gated population of lymphocytes positive cells were further analyzed for CD19 and CD20. Cells positive for CD19 and/or CD20 were calculated, and data were expressed as the percentage positive cells in the population. The loss of positive population from control with LPS induction was calculated and expressed as % inhibition with respect to control.

[7] = test system: Daudi, RPMI-8226, Raji, and U266B1 cells; test: in situ caspase-3 kit, apoptosis (Example 3), cell lines tested; type: cell-based; conditions: 24 hrs
Method: In order to determine the effect of S-isomer of a compound of formula A, UBX, and combinations thereof on apoptosis in cancer cells, an in situ caspase-3 kit (Millipore) was used. Cells were plated in a 6 well plate at a concentration of 0.5×10^6 cells/ml, treated with either S-isomer of a compound of formula A (1000 nM), UBX (100 μg/ml to 0.1 μg/ml), or UBX with S-isomer of a compound of formula A at 1000 nM, and incubated for 24 hrs at 37° C. and 5% CO2. The cells were then transferred to microfuge tubes to receive 10 μl of freshly prepared FLICA™ reagent and incubated for 1 hour at 37° C. and 5% CO2 away from light. After extensive washes with wash buffer, test samples were adjusted to equalize the number of cells in PBS. 100 μl of each cell suspension was transferred to black 96-well plates in duplicates, and the fluorescence was read at an excitation wavelength of 490 nm and an emission wavelength of 520 nm in a plate reader. The fluorescence intensity for a DMSO control was subtracted from that of test compounds. Data was expressed as a percent of the maximum response (100%) and plotted accordingly.

## CC(C)Oc1ccc(-c2nn([C@@H](C)c3oc4ccc(F)cc4c(=O)c3-c3cccc(F)c3)c3ncnc(N)c23)cc1F [S-isomer, (S)-2-(1-(4-amino-3-(3-fluoro-4-isopropoxyphenyl)-1H-pyrazolo[3,4-d]pyrimidin-1-yl)ethyl)-6-fluoro-3-(3-fluorophenyl)-4H-chromen-4-one]
[1]
  cytotoxic to B-cells: not cytotoxic
[2]
  inhibition at 1 µM: ~40%
[3]
  cell cycle effect: dose-dependent G2/M arrest
[4]; S-isomer 200 nM
  Caspase 3 Activity: 0.06
[4]; S-isomer 1000 nM
  Caspase 3 Activity: 0.17
[4]; S-isomer 5000 nM
  Caspase 3 Activity: 0.61
[5]; S-isomer 200 nM
  Caspase 3 Activity: 0.36
[5]; S-isomer 1000 nM
  Caspase 3 Activity: 0.56
[5]; S-isomer 5000 nM
  Caspase 3 Activity: 0.80
[6]; Homo sapiens, B-cell, 1 μM
  inhibition at 1 µM: ~60%
[7]; 1 μM, cell lines
  Caspase-3 activity increase: 40-75%

B1: UBX: monoclonal antibody that targets a specific and unique epitope on CD20, bioengineered for enhanced clinical activity and potency (antibody, V domains shown)
VH: QAYLQQSGAELVRPGASVKMSCKASGYTFTSYNMHWVKQTPRQGLEWIGGIYPGNGDTSYNQKFKGKATLTVGKSSSTAYMQLSSLTSEDSAVYFCARYDYNYAMDYWGQGTSVTVSS
VL: QIVLSQSPAILSASPGEKVTMTCRASSSVSYMHWYQQKPGSSPKPWIYATSNLASGVPARFSGSGSGTSYSFTISRVEAEDAATYYCQQWTFNPPTFGGGTRLEIK
modifications: antibody fragment
[4]; LY1, 24 hrs
  caspase-3 activity: induced
[4]; UBX 10 ng/ml
  Caspase 3 Activity: 0.23
[4]; UBX 100 ng/ml
  Caspase 3 Activity: 0.32
[4]; UBX 1000 ng/ml
  Caspase 3 Activity: 0.53
[4]; UBX 10,000 ng/ml
  Caspase 3 Activity: 0.59
[5]; UBX 10 ng/ml
  Caspase 3 Activity: 0.18
[5]; UBX 100 ng/ml
  Caspase 3 Activity: 0.31
[5]; UBX 1000 ng/ml
  Caspase 3 Activity: 0.51
[5]; UBX 10,000 ng/ml
  Caspase 3 Activity: 0.60
[5]; Raji
  caspase-3 activity: induced
[6]
  effect on CD19+ cells (LPS-induced proliferation): minimal effect
[7]; cell lines tested
  ability to induce Caspase-3 activity: limited ability
